According to the supplement of paper PMC12764529:
± gives the half width of the 95% confidence interval.

Columns and labels:
[1] = folding stability dG unfold from trypsin proteolysis; higher = more stable
In short: (§1)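 Mini-proteins designed to be under 80 residues and free of cysteine were carried in a PA-tagged cDNA display construct and digested with trypsin and with chymotrypsin. Each protease was applied at 11 threefold-diluted concentrations, alongside a no-protease condition, before sequencing. K50 came from Bayesian fitting of the sequencing counts, and unfolding free energy was obtained by comparing it with a sequence-predicted unfolded-state K50 and a shared folded-state K50, for each protease separately or for both together. Designs were retained only if their AlphaFold2 dimer inter-PAE exceeded 15.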

[2] = folding stability dG unfold from chymotrypsin proteolysis; higher = more stable
In short: as §1

[3] = folding stability dG unfold (combined trypsin and chymotrypsin); higher = more stable
In short: as §1

Sequence | folding stability dG unfold [1] [kcal/mol] | folding stability dG unfold [2] [kcal/mol] | folding stability dG unfold [3] [kcal/mol]
SAGMQLLPSATVTLTNPKTGETTTVSVQALRDELAARRGTTDPAAITEADIEAWAKEQGYDPITFTLPSAGG [r19_67_JUSTAS] | 2.96 ± 0.069 | 2.55 ± 0.027 | 2.78 ± 0.076
SAGGSAGGSAGGLPPGDKLKPVASWPIWAMFPVTYKGPDGELPFNIMIPIRIEIWKPDDSAGGSAGGSAGGS [r10_758_TrROS] | 2.23 ± 0.087 | 2.674 ± 0.022 | 2.49 ± 0.1
SAGGSAGGSAGGGMRTVTTVSSFTFEKNGGEKFVTTTVVVPLYVPPRVFPPPENIELLLLSAGGSAGGSAGG [r17_454_JUSTAS] | 2.45 ± 0.33 | 1.36 ± 0.27 | 1.61 ± 0.26
SAGLRLVLELELEVPPDVPPERVREAVEREVRDILGRLGIPLPPDARIVVEEVERRGRRVRFRVEVDFPSAG [r14_735_TrMRF] | 5.13 ± 0.32 | 5.08 ± 0.18 | 5.01 ± 0.21
SAGGSAGGTPKLAETRKNGKKVLAPVEVDPETGVITVTPPDGTTEVVPASRPPPFIEEDPSLGSSAGGSAGG [r6_174_JUSTAS] | -0.252 ± 0.042 | 1.44 ± 0.037 | 1.03 ± 0.087
SAGGSAGGSKTLVIEEDGELYKVRITNKNGKEIEIVMSADEIKKLPPNAKVEVEKIKLPEKKPSAGGSAGGS [r12_419_TrROS_Hall] | 1.18 ± 0.028 | 1.52 ± 0.067 | 1.36 ± 0.062
SAGGMTIRVEVFRDGELVETLEFEGSVEELLAKLPPEVTYVRIEVEKDGKTETVEFKTAEELKAALKSSAGG [r13_299_TrROS_Hall] | 2.13 ± 0.076 | 3.33 ± 0.067 | 2.91 ± 0.17
SAGGSAGGSAGMTVEDLEFDIPFESEEEAIEYLKKKLPKDYTIKPIGFEPENGKLKVKVTKKSAGGSAGGSA [r18_429_JUSTAS] | 0.485 ± 0.19 | 0.789 ± 0.15 | 0.8 ± 0.3
SAGLSPQVRDWLRDLFQEEGFKVKEIDVQPHPNGQMYIKINYPNGKPIKEIPVPPGMDTPEQALKMIRKSAG [r5_352_TrROS] | -0.00734 ± 0.11 | 0.498 ± 0.13 | 0.312 ± 0.07
SAGGSAGGIWIPVPDGYWIKIEMPDNNGEPKATHEMDSPADVEEALEEMPPDNLTKVEIWPLPDSAGGSAGG [r6_705_TrROS] | 0.875 ± 0.16 | 0.902 ± 0.21 | 0.532 ± 0.71
SASMGPEALVERIAEEIRKELGVDAGYKAPVEVRRPPDLVVVDAKLTVYKPDGNPLGEKTVRVVLPPLLSAG [r14_708_JUSTAS] | -0.0399 ± 0.083 | 0.0373 ± 0.22 | 0.129 ± 0.29
SAGGMKIEIVEVTPTRIRIRLENGEVLTLEEIRKLLEEEGLPEPMTVDQIAELLRKRGLKITEIEIVPSAGG [r13_610_TrROS_Hall] | 2.97 ± 0.052 | 3.274 ± 0.025 | 3.18 ± 0.083
SAGGSAGGPFKIKITEIFLIPFEPGEMIMIEIRFPNGKVYYIMLQVNPGNGWIWIAIMEIKPPDSAGGSAGG [r6_337_TrROS] | 3.91 ± 0.35 | 5.1 ± 0.12 | 4.74 ± 0.33
SADKILVRVVFNLGGPPVELTLEADSPEELVEATIAVIKPLFPDADIREVKLFVYNPNTDEVEEFTLTASAG [r14_54_TrMRF] | 2.44 ± 0.043 | 3.341 ± 0.021 | 3.06 ± 0.059
SAGGQRIEFEVQPNPENGMIFIKVKFQQMEPDPNGNKETREITHTVMVKLPPGAKPGEKIEIDIPPNMSAGG [r13_450_TrROS] | 0.859 ± 0.046 | 0.828 ± 0.25 | 1.1 ± 0.39
YKAKITSVSFIPGEGYIVFNVEVIGPDGIPATFPIVIKIEIEPEEPDPAPPVIKDPNGKVYNPIIPKWFDAS [r1_270_TrMRF] | 1.5 ± 0.043 | 2.38 ± 0.054 | 2.13 ± 0.09
SAGGSAKKLKITIVADSEEEARRLAEELARLLRELLPDGSELEVEIEVRVFRPPPPPLPSLEELLASAGGSA [r15_663_TrROS_Hall] | 3.2 ± 0.21 | 3.83 ± 0.12 | 3.49 ± 0.18
SAGGSAGQKIQIERVQWNPEEGYFFIRIRYPGNGREIEHHIRLDNIEIELPPGAKITDIEIYPLPNSAGGSA [r15_959_TrROS] | 1.8 ± 0.079 | 1.83 ± 0.12 | 1.96 ± 0.13
SAGMKYRIVIENENGEKIEFEKLEDGTIKMTIEKDGKKEEITIKVPPGMTIEELLKKFPNAKIVKIEKVSAG [r5_259_TrROS_Hall] | 2.78 ± 0.069 | 3.45 ± 0.065 | 3.23 ± 0.096
SAGGSAGGSAGGPPPGQKVTMWVIRIEIKIKLERTPDGKLKLKIEIKISIVFITIYAPDSAGGSAGGSAGGS [r10_297_TrROS] | 3.45 ± 0.13 | 4.87 ± 0.19 | 4.6 ± 0.22
SAGGSAGGSAGTATLTDPNGVRIEVFPDGTVRATVYRPDPSTGEWKLAATFTFPLHPDAFSAGGSAGGSAGG [r11_497_TrMRF] | 1.72 ± 0.027 | 2 ± 0.067 | 1.94 ± 0.066

Sequence | folding stability dG unfold [1] [kcal/mol] | folding stability dG unfold [2] [kcal/mol] | folding stability dG unfold [3] [kcal/mol]
SAGGSAGGSAGGSPNIYYTSGPFALVVTLPNGTKIVIPGSNIENLKNYNLISVEVVSTDSAGGSAGGSAGGS [r4_348_TrMRF] | 0.528 ± 0.065 | 1.81 ± 0.1 | 1.4 ± 0.15
SAGGAPIEAAPDEEITLTFTLTVRFRGPDGAEGTATFRLTVPVKVEPVPPVPEPRVFRLPDGSEVTLGSAGG [r13_401_TrMRF] | 1.48 ± 0.057 | 1.66 ± 0.12 | 1.64 ± 0.12
SAAEKLPDGTIVIKLTEEEYKKLTEEEIEKIKEELKKEYPENVTVEIKPTKAKKIPTEPFEKGEKYNESSAG [r14_312_JUSTAS] | -0.313 ± 0.37 | -0.267 ± 0.37 | < -1
SAGGSAGGSAGAVLPIKNGWVAVIHMGPDGRVTINIYPPDKPREIEIPVNEPMEIEIFPWSAGGSAGGSAGG [r11_164_TrROS] | 2.08 ± 0.053 | 1.3 ± 0.058 | 1.78 ± 0.091
SAGGSAGGSAGMKYKATIPLPDGTTLTYESEDPEKAIEEITKETGVPKSKITITPIPELESAGGSAGGSAGG [r17_169_JUSTAS] | 0.33 ± 0.03 | 0.709 ± 0.096 | 0.598 ± 0.097
SAGMPLASVEVEIEKLPDGTYRVRARITIWDPVTGKPLREVEFEGPFESPEAAEAEALKKALEVLEADSAGG [r19_255_TrMRF] | 4.25 ± 0.18 | 4 ± 0.11 | 4.06 ± 0.13
SAGGIVAADVSPDGTVYPISPEAVRALVDAIRDRYGFDVKVTITEARYGDRWVTVIPIELTGLSPEEASAGG [r13_790_TrMRF] | 1.31 ± 0.04 | 1.54 ± 0.02 | 1.5 ± 0.08
MEEIRDLPGIKWQPIERDGDRYYWMFTIPPEQFKNNGKPPVIVMAEFEPNGKWRITPWIRPWLRKLGIEPVS [r1_256_TrROS] | 1.92 ± 0.049 | 1.72 ± 0.083 | 1.92 ± 0.091
SAGGSPSTARTVELEFNPNEVTLEKIKELLEELGFKGITSITVESTPDSLTITLTDPNGAPSVVRVISAGGS [r8_86_JUSTAS] | 2.05 ± 0.049 | 2.66 ± 0.075 | 2.43 ± 0.047
SAGGSAGGMKIRIEIEMTPEEVEALREELEKAGYRVEVERREDGRVRVTIEIELPPPPPPPEEESAGGSAGG [r6_8_TrROS_Hall] | 3.08 ± 0.24 | 3.75 ± 0.13 | 3.46 ± 0.2
SAGGSAGGSAGDPGERPYVEVTVRIPITPGLEIPWWIPPENMPPEDAEKFAQDIAKEFLDSAGGSAGGSAGG [r11_409_TrROS] | 0.889 ± 0.047 | -0.482 ± 0.17 | 0.426 ± 0.11
SKGKKYELIVLLFKVEDPEKYPVEKKVSVPKEFIDFLKKKGFKIIEIKTRVIPSSDGSVYVEHVALVEVDSA [r9_465_TrMRF] | 2.62 ± 0.12 | 4.16 ± 0.13 | 3.82 ± 0.13
SAGGSARPELVEYRVRIGDVEVRVVLPEGLEELLRRIPDVEVEPVRRFEAPPPPVVLERSELGDFASAGGSA [r15_443_TrMRF] | 1.56 ± 0.051 | 1.77 ± 0.11 | 1.71 ± 0.14
SAGFVPGKLKAVDPNGNEIDVIEIEELPNGKVIAKGKNKTNGFPYIATYDPVSGKVYIILPNGKVIEIGSAG [r5_809_TrMRF] | 0.867 ± 0.074 | 1.82 ± 0.12 | 1.55 ± 0.13
SGPTSTVDPEFPGSTPGGTVTPSVVRVPVPPDEVERVIEEIRERAGVPGLKVERVERTADGVVLIEVSLPSA [r9_1101_JUSTAS] | 0.36 ± 0.029 | 1.15 ± 0.015 | 0.882 ± 0.066
SPSPAAKNMKPIRIRLRDPNGKKYKIENINVGPDGQFQIRIKFPGNTHTQTLPPGAPFELPPDRIEEVEISA [r9_993_TrROS] | 0.808 ± 0.079 | 0.971 ± 0.2 | 0.959 ± 0.092
GPMTVSTKTSTKTYFDPETGVETVVEPVTVTVTFPTSPTVTYTTTVTTTTKVERLPDGPLRTETTTTTTVSS [r1_296_JUSTAS] | -0.135 ± 0.17 | -0.305 ± 0.38 | 0.0169 ± 0.14
SAGGSAGGMVTTKELPSNKTVTVTVTPDPVAGREGATVKPPSTSETKNFGDPAAAAAMSPEKLSSAGGSAGG [r6_740_JUSTAS] | 0.42 ± 0.034 | 0.2 ± 0.071 | 0.29 ± 0.15
SAGGSATVEEIAKYFAEQHPGMEPKSVKLDYERNPEEGVYRIKVNITMRFDDNKKHKMPVEIQFPVSAGGSA [r15_266_TrROS] | 0.406 ± 0.059 | 0.358 ± 0.14 | 0.433 ± 0.085
SAGKKTLIIRVKIRVRRKVDGKEEEVELELVIEVEAEEDEEEARRKAEELARKLAEEYNLEIEEVEIFPSAG [r5_497_TrROS_Hall] | 4.18 ± 0.13 | 4.31 ± 0.074 | 4.26 ± 0.11
SAKTIPINIWGPLGDMDRMAEEIARMIARKLGLPANLKKIKIKFTEIEPWPDPDGKPRWVRMSIEIKVKSAG [r14_736_TrROS] | 3.55 ± 0.06 | 3.61 ± 0.095 | 3.45 ± 0.19
